In patent EP2848693A1, “Concatenation of halogenated alkenyl diphosphate derivatives” (LANXESS Deutschland GmbH, priority 2013, dated 2015):

Columns and labels:
[1] = biological target: T1, E. coli Undecaprenyldiphosphatsynthase (EcUPPS) (Escherichia coli, UniProt P60472); assay: MTP phosphate detection assay (diphosphate release, BIOMOL Green), substrate kinetics; format: biochemical; conditions: for rel. kcat Km^-1: relative to natural substrate FPP (100 %)
T1 construct: made in house; host or cells: E. coli
T1 sequence (P60472 1-253): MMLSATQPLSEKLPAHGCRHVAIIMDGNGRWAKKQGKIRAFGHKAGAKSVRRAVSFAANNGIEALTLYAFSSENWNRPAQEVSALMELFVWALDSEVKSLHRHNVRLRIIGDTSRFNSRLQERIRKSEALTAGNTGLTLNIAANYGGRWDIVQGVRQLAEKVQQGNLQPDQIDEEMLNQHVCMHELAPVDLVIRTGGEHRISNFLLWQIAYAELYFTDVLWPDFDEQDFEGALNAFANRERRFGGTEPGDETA
Protocol: (§1) Cis-Prenyltransferasen entlassen während der Reaktion Diphosphat nach jedem Kondensationsschritt. Dies ist der Ansatzpunkt, der gewählt wurde, um unabhängig von der Art des Produktes den Grundumsatz zu detektieren. […] Die Dreifachbestimmungen der Enzymreaktionen wurden mit 100 µL BIOMOL Green™ Detektionsreagenz gestoppt und nach weiteren 20 min in einem Mikrotiterplattenspektrophotometer bei 620 nm gemessen. Zur Kontrolle erfolgte für jede Substratkonzentration eine Messung mit denaturiertem Enzym zu den unterschiedlichen Zeitpunkten um Selbsthydrolyse der Substrate zu berücksichtigen. Zur Quantifizierung wurde eine Pi-Standardkurve in Doppelbestimmung mitgeführt. Die Verdünnung des KPi-Standards erfolgte in Assaypuffer, wurde mit 100 µL BIOMOL Green™ Detektionsreagenz nach Ablauf der Enzymreaktion in den Test-Wells detektiert und zeitgleich nach weiteren 20 min bei 620 nm gemessen. Eine lineare Beziehung zwischen A620 nm und Pi-Konzentration ermöglichte eine Quantifizierung zwischen 80 µM-0 µM Pi.
(§2) Die Bestimmung der FPP-Kinetiken der EcUPPS sowie der ThkCPT erfolgte unter analogen Bedingungen der Bestimmung von IPP. […] Die Enzymreaktion wurde nach 60 s, 120 s, 180 s, 300 s, 600 s, 900 s oder 1200 s durch Zugabe von 100 µL BIOMOL Green™ Detektionsreagenz gestoppt und wie oben beschrieben gemessen.
(§3) Die Assaybedingungen wurden wie in Beispiel 3 beschriebenen gewählt. […] Variation von 500 - 0 µM im Fall der Elongationssubstrate erfolgte konstant mit 10 µM FPP (jedes Homoallyldiphosphat möglich).
(§4) Zur Berechnung der Umsatzraten in nkat·mg^-1 wurde verwendet: ν0 = ((A620-ABlank)⋅1000)/(2⋅m⋅t⋅[E]) [formula] v0 Anfangsgeschwindigkeit der Diphosphathydrolyse (nkat·mg^-1) A620 Absorption bei 620 nm ABlank Absorption der Kontrolle bei 620 nm m Anstieg der Phosphatstandardkurve (µM^-1) t Dauer der Enzymreaktion (s) [E] Enzymkonzentration (mg·L^-1)
(§5) Die Auswertung erfolgte durch nicht-lineare Regression nach der Hill-Gleichung mit Sigma-Plot 11. […] Substratkonzentration (µM) h Hill-Koeffizient

ThkCPT = biological target: T2, ThkCPT (Thermococcus kodakarensis, UniProt Q5JGE1); assay: Product chain length by HPLC with fluorescent starter substrate 110; format: biochemical, Thermococcus kodakaraensis
T2 construct: made in house; host or cells: E. coli
T2 sequence (Q5JGE1 1-264): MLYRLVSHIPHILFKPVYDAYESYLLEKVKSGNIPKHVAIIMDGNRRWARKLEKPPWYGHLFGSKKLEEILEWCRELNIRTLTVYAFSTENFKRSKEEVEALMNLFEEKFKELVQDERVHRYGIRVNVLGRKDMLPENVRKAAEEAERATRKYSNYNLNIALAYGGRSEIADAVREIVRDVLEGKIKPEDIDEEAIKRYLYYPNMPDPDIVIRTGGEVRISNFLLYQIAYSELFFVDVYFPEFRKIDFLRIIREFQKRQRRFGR
Protocol: (§6) Zur Bestimmung der Produktkettenlängen wurden 500 µL Enzymassays in MS-Gläschen durchgeführt. […] Die Extraktion der Polyprenyldiphosphate erfolgte mit 500 µL 1-Butanol. Die Butanolphase wurde in ein neues Glas überführt und unter Stickstoffstrom von dem Lösungsmittel befreit. Die Hydrolyse der Diphosphate zum Polyprenol erfolgte durch Zugabe von 200 µL Hydrolysepuffer (20% Isopropanol, 4,4 Units/mL saure Phophatase aus Kartoffeln, 0,1 % Triton X-100, 50 mM Natriumacetat (pH 4,7)) und wurde über Nacht bei 37 °C inkubiert. Die Polyprenole wurden mit 500 µL nHexan extrahiert und zur weiteren DC- oder HPLC-Analyse vorbereitet. Für DC-Experimente und LC/ESI-MS-Analysen wurde die nHexan-Phase in ein neues Glas überführt, das Lösungsmittel abgedampft und die Produkte erneut in 100 µL nHexan resuspendiert um eine Aufkonzentrierung zu erreichen. Für HPLC-Analysen mit 110 ((2E,6E)-8-O-(N-methyl-2-aminobenzoyl)-3,7-dimethyl-2,6-octandien-1-diphosphat) als Startersubstrat wurde die nHexan-Phase 1:3 verdünnt in das HPLC-System mittels Autosampler injiziert.
Die HPLC-Analyse der Polyprenole erfolgte an einer Anlage von Merck HITACHI D-7000, wobei als stationäre Phase eine YMC-ODS AQ (150 x 4 mm, 5 µm; YMC Europe GmbH, Dinslaken) Säule verwendet wurde. Die Elution erfolgte mit 1 mL·min^-1 und die Detektion bei 210 nm mit einem UV-VIS Detektor: Merck HITACHI L-7420. Das Injektionsvolumen betrug dabei 5 µL. Die mobile Phase setzte sich aus Laufmittel A (MeOH/H2O/Isopropanol 12:1:8 (v/v/v)) und Laufmittel B (nHexan/Isopropanol 7:3 (v/v)) zusammen. Die Probenaufgabe erfolgte mittels Autosampler (Merck HITACHI L-7250). [drawing 35]
Zur selektiven und vor allem sensitiven Detektion von Polyprenolen kann ein alternatives, fluoreszierendes Startersubstrat verwendet werden, (2E,6E)-8-O-(N-methyl-2-aminobenzoyl)-3,7-dimethyl-2,6-octandien-1-diphosphat (110). Die Analyse erfolgte wie in Beispiel 6 beschrieben. Dabei wurden 3 µL pro Probe injiziert und die Detektion erfolgte über Fluoreszenz: Ex 352 nm / Em 420 nm wobei das Gerät Merck HITACHI L-7480 als Fluoreszenzdetektor verwendet wurde. […]

[2] = biological target: T3, Thermococcus kodakaraensis cis-Prenyltransferase (ThkCPT) (Thermococcus kodakarensis, UniProt Q5JGE1); assay: MTP phosphate detection assay (diphosphate release, BIOMOL Green), substrate kinetics; format: biochemical; conditions: elongation substrate varied, starter FPP 10 µM, room temperature
T3 construct: made in house; host or cells: E. coli
T3 sequence (Q5JGE1 1-264): T2 sequence (Q5JGE1 1-264)
Protocol: as §1, §2, §3, §4, §5

EcUPPS = biological target: T4, EcUPPS (Escherichia coli, UniProt P60472); assay: Product chain length by HPLC with fluorescent starter substrate 110; format: biochemical; conditions: 10 µM EcUPPS, 110 as starter substrate, HPLC of hydrolysed products
T4 construct: made in house; host or cells: E. coli
Protocol: as §6
Die HPLC-Analyse der Polyprenole erfolgte an einer Anlage von Merck HITACHI D-7000, wobei als stationäre Phase eine YMC-ODS AQ (150 x 4 mm, 5 µm; YMC Europe GmbH, Dinslaken) Säule verwendet wurde. Die Elution erfolgte mit 1 mL·min^-1 und die Detektion bei 210 nm mit einem UV-VIS Detektor: Merck HITACHI L-7420. […]

[3] = substrate: CC(C)=CCC/C(C)=C/COP(=O)(O)OP(=O)(O)O; assay: MTP phosphate detection assay (diphosphate release, BIOMOL Green), substrate kinetics; format: biochemical, Escherichia coli; conditions: other: starter substrate varied 80 - 0 µM, elongation substrate IPP constant 150 µM, 22°C
Protocol: as §1, §2, §3, §4, §5

[4] = substrate: C=C(C)CCO[P@@](=O)(O)OP(=O)(O)O; assay: as above; format: biochemical, Escherichia coli; conditions: other: elongation substrate varied 500 - 0 µM, starter FPP constant 10 µM; 22.0 °C
Protocol: as §1, §2, §3, §4, §5

[5] = substrate: C=C(Cl)CCOP(=O)(O)OP(=O)(O)O; assay: as above; format: biochemical, Escherichia coli; conditions: other: elongation substrate varied 500 - 0 µM, starter FPP constant 10 µM; 22.0 °C
Protocol: as §1, §2, §3, §4, §5

[6] = substrate: CC(C)=CCC/C(C)=C/CC/C(C)=C/CC/C(C)=C/COP(=O)(O)OP(=O)(O)O; assay: as above; format: biochemical, Escherichia coli; conditions: other: starter substrate varied 80 - 0 µM, elongation substrate IPP constant 150 µM, 22°C
Protocol: as §1, §2, §3, §4, §5

[7] = substrate: CNc1ccccc1C(=O)OC/C(C)=C/CC/C(C)=C/COP(=O)(O)OP(=O)(O)O; assay: as above; format: biochemical, Escherichia coli; conditions: other: starter substrate varied 80 - 0 µM, elongation substrate IPP constant 150 µM, 22°C
Protocol: as §1, §2, §3, §4, §5

[8] = substrate: C=C(Br)CCOP(=O)(O)OP(=O)(O)O; assay: as above; format: biochemical, Escherichia coli; conditions: other: elongation substrate varied 500 - 0 µM, starter FPP constant 10 µM; 22.0 °C
Protocol: as §1, §2, §3, §4, §5

[9] = substrate: C=C(Cl)CCOP(=O)(O)OP(=O)(O)O; assay: as above; format: biochemical, Thermococcus kodakaraensis; conditions: other: elongation substrate varied, starter FPP 10 µM, room temperature
Protocol: as §1, §2, §3, §4, §5

[10] = substrate: C=C(Br)CCOP(=O)(O)OP(=O)(O)O; assay: as above; format: biochemical, Thermococcus kodakaraensis; conditions: other: elongation substrate varied, starter FPP 10 µM, room temperature
Protocol: as §1, §2, §3, §4, §5

[11] = substrate: C=C(C)CCO[P@@](=O)(O)OP(=O)(O)O; assay: purified protein, by the assay type; conditions: other: elongation substrate varied, starter FPP 10 µM, room temperature
[12] = starter substrate varied, IPP constant 150 µM

Molecule: CNc1ccccc1C(=O)OC/C(C)=C/CC/C(C)=C/COP(=O)(O)OP(=O)(O)O [Substrat 110, (2E,6E)-8-O-(N-methyl-2-aminobenzoyl)-3,7-dimethyl-2,6-octandien-1-diphosphat]
- rel. kcat Km^-1 [1]: 4%
- Akzeptanz als Startersubstrat der ThkCPT (ThkCPT; 65°C): als Startersubstrat akzeptiert

Molecule: C=C(Br)CCOP(=O)(O)OP(=O)(O)O [Br-BPP, 3-Brom-3-Butenyldiphosphat]
- kcat ([1]; elongation substrate varied, starter FPP 10 µM): 0,0004 s^-1
- kcat [2]: 0,0004 s^-1
- Kondensationen (Reaktionsprodukte) (ThkCPT; 10 µM ThkCPT, 110 as starter substrate, room temperature 25°C): mehr als zwei Kondensationen
- Kondensationsschritte / Elongationseinheiten (EcUPPS): 2

Molecule: Farnesyldiphosphat [FPP]
- rel. kcat Km^-1 [1]: 100%
- Km ([1]; starter substrate varied 80 - 0 µM, elongation substrate IPP constant 150 µM, 22°C): 1.8 µM
- kcat [1, 12]: 0,5 s^-1
- vmax [1, 12]: 17,9 ± 0,4 nkat/mg

Molecule: CC(C)=CCC/C(C)=C/CC/C(C)=C\COP(=O)(O)OP(=O)(O)O [Z,E-FPP]
- rel. kcat Km^-1 [1]: 90%

Molecule: CC(C)=CCC/C(C)=C/CC/C(C)=C/CC/C(C)=C/COP(=O)(O)OP(=O)(O)O [GGPP, Geranylgeranyldiphosphat]
- rel. kcat Km^-1 [1]: 76%

B1: E. coli Undecaprenyldiphosphatsynthase (EcUPPS) (Escherichia coli K-12) (protein)
chain: T1 sequence (P60472 1-253)
notes: made in house; host or cells: E. coli
- Km [3]: 48,8 ± 8,3 µM
- Vmax [3]: 11,3 ± 0,7 nkat/mg
- kcat [3]: 0,3 s^-1
- kcat/Km [3]: 7000 M⁻¹ s⁻¹
- Km [4]: 6.5 µM
- Vmax [4]: 14,4 nkat mg^-1
- kcat [4]: 0,4 s^-1
- Km [5]: 3.8 µM
- Vmax [5]: 0,03 nkat mg^-1
- Km [6]: 1.9 µM
- Vmax [6]: 14,9 ± 0,3 nkat/mg
- kcat [6]: 0,4 s^-1
- kcat/Km [6]: 223000 M⁻¹ s⁻¹
- Km [7]: 5.6 µM
- Vmax [7]: 1,9 ± 0,1 nkat/mg
- kcat [7]: 0,1 s^-1
- kcat/Km [7]: 11000 M⁻¹ s⁻¹
- Km [8]: 6.4 µM
- Vmax [8]: 0,02 nkat mg^-1

B2: Thermococcus kodakaraensis cis-Prenyltransferase (ThkCPT) (Thermococcus kodakarensis KOD1) (protein)
chain: T2 sequence (Q5JGE1 1-264)
notes: as for B1
- Km [9]: 21,2+/-2,1 µM
- Vmax [9]: 0,01 nKat mg^-1
- Km [10]: 54,0 +/- 11,1 µM
- Vmax [10]: 0,01 nKat mg^-1
- Km [11]: 14.8 µM
- Vmax [11]: 2,0 nKat mg^-1
- kcat [11]: 0,07 s^-1
